Test results taken from the supplement of paper PMC9170038.

Test system: MS2 coat protein
Test: apparent KD of MS2 coat protein; designed switch direction (-1 OFF switch, 1 ON switch): 1; higher = weaker reporter binding
Outline: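 SNAP-549-labelled MS2 coat protein was titrated, doubling from 0.7 or 1.5 nM to 3 µM, over designed RNA switches transcribed on Illumina chips by stalled E. coli RNA polymerase. Runs were done without input, with 200 uM small-molecule ligand, or with an oligonucleotide input. Apparent KD is the per-design median over clusters of curve-fitted normalised fluorescence.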

[1] = Eterna round: R95, input ligand: FMN 200 uM
[2] = Eterna round: R95, input ligand: microRNA oligo, concentration not stated
[3] = Eterna round: R95, input ligand: none
[4] = input ligand: microRNA oligo, concentration not stated

Sequence | apparent KD of MS2 coat protein [1] | apparent KD of MS2 coat protein [2] | apparent KD of MS2 coat protein [3] | apparent KD of MS2 coat protein (input ligand: FMN 200 uM) | apparent KD of MS2 coat protein [4] | apparent KD of MS2 coat protein (input ligand: none)
UAGAAACAUGAGGAUCACCCAUGUGUCAAAGACAUAGGAUAUCGUGACCGGCGCCGGACACGAGAAGGGUGGUAAA [Quingees] (puzzle: Same State 1) | 387 nM | 209 nM | 386 nM |  |  | 
GCUAGGAUAUGACCAGGAUCACCGGUUAGAAGGAGCGAAAGCUAGGAUAUGACCAGGAUCACCGGUUAGAAGGAGCUGUCCUCC [pwkr ssNG3 DX 2xF5 +2xFMN.12] (Eterna round: R96, puzzle: Same State NG 3) |  |  |  | 69.1 nM | 101 nM | 117 nM
UUGUGUUUGCGAGGAUAUCGUUUGUUGAAGUUACGAGAAGGCGCUCUCUUUACAUGAGGAUCACCCAUGUCUUUGAUGCAUGAU [JR_SSNG1_Sub072] (Eterna round: R96, puzzle: Same State NG 1) |  |  |  | 81.1 nM | 53.5 nM | 75.1 nM
AUAUAACAUGAGGAUCACCCAUGUCUCUAAAGUCGAGGAUAUGGGCAGGUUAUAUCCGAACCAGAAGGCGAAUUAU [SS1 Teenbexe 5] (puzzle: Same State 1) | 56.3 nM | 239 nM | 322 nM |  |  | 
GGUCCAGCCUGAGCUGGACAAAAGCAUGUACAUGAGGAUCACCCAUGUCAUGUACAAGCUUUUUGCUCGUCUUAAAA [Mat - Sensor - JL mod - D87] (Eterna round: R96, puzzle: Sensor for hsa-mir-208a) |  |  |  | 586 nM | 14.2 nM | 573 nM
UAGUGCGUUAGAGGAUAUUCUAAAUAAAAUAAUAAGACAUGAGGAUCACCCAUGUAUGUACAUGGGAAGAAGGCUGAUGUGCUA [Omei SS(NG)2 Bv2] (Eterna round: R96, puzzle: Same State NG 2) |  |  |  |  | 342 nM | 
GGUUUAGCCAGGCGCAAUUGCGCCUGAAAACAUGAGGAUCACCCAUGUUUGGGACAAGCUUUGCUCCUCGUCUUGCA [Edreisza] (puzzle: Sensor for hsa-mir-208a) | 243 nM | 41.9 nM | 330 nM |  |  | 
CUCAAACAUGAGGAUCACCCAUGUGUUGUCGUGGGAGGAUAUCCCAGUUCGGUGGCGUCGGGAGAAGGCCUAUGUC [× ×•×ª×• ×ž×“×™× ×” × ×—×ª-16] (puzzle: Same State 1) | 50.4 nM | 100 nM | 129 nM |  |  | 
UGUUGGAAGUGAGGAUAUGGGAAAGGAAGUGUACCAGAAGGCACAUCUAGCCGGAACAUGAGGAUCACCCAUGUACCACACUAC [PowerStrip SSNG 1.15] (Eterna round: R96, puzzle: Same State NG 1) |  |  |  | 128 nM | 24.6 nM | 30.7 nM
GGUCCAGCCUGAGCUGGACAAAAGCAUGUACAUGAGGAUCACCCAUGUCAUGUACAAGCUUUUUGUUCGUCUUAAAA [JL mod - D87 - 13] (puzzle: Sensor for hsa-mir-208a) | 420 nM | 15.6 nM | 344 nM |  |  | 
AAUUUAAUACAUGAGGAUCACCCAUGUAAAUUAAUUAAGAUCAAGGAUAUCAGCUCGAAUAGAGCUGAGAAGGUGAUCACAUGU [SSNG3/19-A1] (Eterna round: R96, puzzle: Same State NG 3) |  |  |  |  | 244 nM | 
AUAACCCGUGCUAAGGAUAUGCGUACUCCUACAUGAGGAUCACCCAUGUCCCGCCGAAAAGGAAGGCAGAAGGUAGCACGGGCCG [Lasoleri] (puzzle: Same State 2) | 45.7 nM | 84.9 nM | 126 nM |  |  | 
GAGAGAGGAAGCGAGGAUAUCGUGUUGAGUACAUGAGGAUCACCCAUGUUGUAGGUAGAGGUAGGCGAGAAGGCGCAGGAGAGGU [JR_SS2_Sub098] (puzzle: Same State 2) | 106 nM | 48.8 nM | 122 nM |  |  | 
AGUCCAGCCUGAGCUGGACAAAAGCAUGUACAUGAGGAUCACCCAUGUUCAUGUACAAGCUUUUUGCUCGUCUUAGC [salish99_208a_r3_063] (puzzle: Sensor for hsa-mir-208a) | 837 nM | 14.6 nM | 648 nM |  |  | 
UAUCCAUAGAUAGGAUAUCAGUAUACAUGAGGAUCACCCAUGUUCUAUUUGGUUUUAAUUUAUUCUGAGAAGGAUCUUGAUGAA [SameState NG2 #1] (Eterna round: R96, puzzle: Same State NG 2) |  |  |  | 13.8 nM | 16.4 nM | 17.6 nM
AGUAGUGUAACAUGAGGAUCACCCAUGUAAGAAGAUGUAACCUAGGAUAUGGAUGAUAUGUUAGACCAGAAGGAGGAUUGUUUA [JR_SSNG3_Sub039] (Eterna round: R96, puzzle: Same State NG 3) |  |  |  | 43.2 nM | 116 nM | 207 nM

Sequence | apparent KD of MS2 coat protein [1] | apparent KD of MS2 coat protein [2] | apparent KD of MS2 coat protein [3] | apparent KD of MS2 coat protein (input ligand: FMN 200 uM) | apparent KD of MS2 coat protein [4] | apparent KD of MS2 coat protein (input ligand: none)
GUUACAUGAGGAUCACCCAUGUAUGUGUGGGAGUAAGUGUCUUAGGAUAUCUAAUAUUUAAAUUAAGAGAAGGAAGAUUGUUGU [JMF's solution 6] (Eterna round: R96, puzzle: Same State NG 3) |  |  |  | 112 nM | 89.9 nM | 112 nM
UAAGUAUGUUGAGGAUAUUAUGUCAAGAGAGAUGACAUGAGGAUCACCCAUGUGUGAAGAGGAUUUAAGAAGGCAACAUACUUA [JR_SSNG2_Sub090] (Eterna round: R96, puzzle: Same State NG 2) |  |  |  | 39.9 nM | 47.7 nM | 66.7 nM
AAUUAAGAUCGAGGAUAUCACGUCGUUUAGACGUGAGAAGGCGAUCAUAACAUGAGGAUCACCCAUGUAUUACAUGAAUUAAUU [SSNG1/4-B3] (Eterna round: R96, puzzle: Same State NG 1) |  |  |  | 20.6 nM | 26.6 nM | 29.1 nM
CUGAGCAAUCAAGGAUAUCACGUCGAUUAGACGUGAGAAGGUGAUCAUCACAUGAGGAUCACCCAUGUGUUACAUGGAGCUCAG [Brourd's SSNG1/1-A2 mod 4] (Eterna round: R96, puzzle: Same State NG 1) |  |  |  |  | 610 nM | 
AGGCUCAGACGAGGAUAUGAUCAUGGCGCUUCGGCGCAUACAUGAGGAUCACCCAUGUAGGGUGAUCAGAAGGCGUCUGAGCCA [SSNG2/8-A1] (Eterna round: R96, puzzle: Same State NG 2) |  |  |  | 42.1 nM | 225 nM | 314 nM
ACCCAAAGUAUAUGGGAACAGGCUUUUUAACAUGAGGAUCACCCAUGUACUCGUCUUAUAAGCAGUCGAAAGACUGC [Sensor 100 - 2] (puzzle: Sensor for hsa-mir-208a) | 487 nM | 18 nM | 906 nM |  |  | 
AAAUAAAACACAGGAUAUGCAGCCAAUACGGCGGCAGAAGGGUGAGACAUGAGGAUCACCCAUGUACACGUCCCACAGACGUGC [Mabege] (Eterna round: R96, puzzle: Same State NG 1) |  |  |  | 426 nM | 89.9 nM | 119 nM
UUAAUGAUGUAAGGAUAUACAUGAGGAUUUCUCGUAGAAGGUACAGGACAUGAGGAUCACCCAUGUGUCGCUCAGAAGAGCGUA [Mat - Same State NG 1 - JL mod - D17] (Eterna round: R96, puzzle: Same State NG 1) |  |  |  | 509 nM | 505 nM | 636 nM
UUUUUGAUCCGAGGAUAUCCUUUUUUCUUACAUGAGGAUCACCCAUGUAAAGGGAUUGAGUUGUAGGAGAAGGCGGUUUUUUUU [JR_SSNG2_Sub060] (Eterna round: R96, puzzle: Same State NG 2) |  |  |  | 17.5 nM | 32.4 nM | 32.3 nM
UAGCUUGUGGUAGGAUAUCUAGGAUAUGGGAAGAGCUAAGCUUGGAAGUCACUUCACCCAGAAGGAGAGAAGGACCAGAGGCUU [pwkr ssNG2 2FMN + F9.6] (Eterna round: R96, puzzle: Same State NG 2) |  |  |  | 218 nM | 73.6 nM | 262 nM
AAUUAUUUACAUGAGGAUCACCCAUGUAUUAUUACAAGCUUUAUCCUCGUUUUAUUUAUUAUUAUUAUUAUUAUUAA [benbell_design1] (puzzle: Sensor for hsa-mir-208a version 2) | 369 nM | 33 nM | 326 nM |  |  | 
CGUCCGGCCUGAGCUGGACGGAAGCAUGUACAUGAGGAUCACCCAUGUUCAUGUGCAGGCUUUUUGCUCGUCUUGUG [JL-shm-2.08 JL mod] (puzzle: Sensor for hsa-mir-208a) | 105 nM | 12.5 nM | 127 nM |  |  | 
AUAAGGCAAGCUUUUUUCUCGUAGUGUAAACAUGAGGAUCACCCAUGUGCCCACCCUGGAUCUUUGGAUCGCGGAAC [Raxesori] (puzzle: Sensor for hsa-mir-208a) | 83.6 nM | 27.1 nM | 104 nM |  |  | 
GUAGCAUACCGAGGAUAUUCAUUACAUGAGGAUCACCCAUGUUAAUUAUAGGCCAAAAGGCCUUGGGAGAAGGCGGAAUGCUAC [Xeonanis - 20 Mod13] (Eterna round: R96, puzzle: Same State NG 2) |  |  |  | 12.2 nM | 8.28 nM | 13.3 nM
AGUCCAGCCUGAGCUGGACAAAAGCAUGUACAUGAGGAUCACCCAUGUUCAUGUACAAGCUUUUUGCUCGUCUUGCA [salish99_208a_r3_104x] (puzzle: Sensor for hsa-mir-208a) | 450 nM | 15 nM | 415 nM |  |  | 
